The record followed here is the RNAGym collection of RNA variant scans (doi:10.7554/elife.90254).

Sequences and labels used below:
B1: LINE1-full (parent)
chain: UACGUAGGUGGUUUUCCCCUGAUAGUGCUAAGGGGGCCUGGAAGUUUGGACUGGGCAGAGCUCAACACAGCGUGGCAAAGUGGCUGUGGCUAGACUGCCUCUCUGGAUUCCUCGUCACUCAGCAGGGCAUCUCUGAGAGAAAUGCC

Variants of B1 are the subject of the series. Put plainly: self-cleavage, relative activity (ratio to wild type); higher = more cleavage; in vitro, sequencing; the parent is a self-cleaving ribozyme.
UACGAAGGUGGUUUUCCCCUGAUAGUGCUAAGGGGGCCUGGAAGUUUGGACUGGGCAGAGCUCAACACAGCGUGGCAAAGUGGCUGUGGCUAGACUGCCUCUCUGGAUUCCUCGUCACUCAGCAGGGCAUCUCUGAGGGAAAUGCC [U5A A138G]: the self-cleavage was determined as 0.75. Regarding UACGAAGGUGGUUUUCCCCUGAUAGUGCUAAGGGGGCCUGGAAGUUUGGACUGGGCAGAGCUCAACACAGCGUGGCAAAGUGGCUGUGGCUAGACUGCCUCUCUGGAUUCCUCGUCACUCAGCAUGGCAUCUCUGAGAGAAAUGCC [U5A G125U], the self-cleavage worked out at 0.15. Consider UACGAAGGUGGUUUUCCCCUGAUAGUGCUAAGGGGGCCUGGAAGUUUGGACUGGGCAGAGCUCAACACAGCGUGGCAAAGUGGCUGUGGCUAGACUGCCUCUCUGGAUUCCUCGUCACUCAGCAGGGCUUCUCUGAGAGAAAUGCC [U5A A129U], for which the self-cleavage was 1.47. Consider UACGAAGGUGGUUUUCCCCUGAUAGUGCUAAGGGGGCCUGGAAGUUUGGACUGGGCAGAGCUCAACACAGCGUGGCAAAGUGGCUGUGGCUAGACUGCCUCUCUGGAUUCCCCGUCACUCAGCAGGGCAUCUCUGAGAGAAAUGCC [U5A U112C], for which the self-cleavage was determined as 0.71.

UACGAAGGUGGUUUUCCCCUGAUAGUGCUAAGGGGGCCUGGAAGUUAGGACUGGGCAGAGCUCAACACAGCGUGGCAAAGUGGCUGUGGCUAGACUGCCUCUCUGGAUUCCUCGUCACUCAGCAGGGCAUCUCUGAGAGAAAUGCC [U5A U47A]: the self-cleavage is 0.59.

Regarding UACGAAGGUGGUUUUCCCCUGAUAGUGCUAAGGGGGCCUGGAAGUUUGGACUGGGCAGAGCUCAACACAGCGUGGCAAAGUGGCUGUGGCUAGACUGUCUCUCUGGAUUCCUCGUCACUCAGCAGGGCAUCUCUGAGAGAAAUGCC [U5A C98U], the self-cleavage came to 0.53. With UACGAAGGAGGUUUUCCCCUGAUAGUGCUAAGGGGGCCUGGAAGUUUGGACUGGGCAGAGCUCAACACAGCGUGGCAAAGUGGCUGUGGCUAGACUGCCUCUCUGGAUUCCUCGUCACUCAGCAGGGCAUCUCUGAGAGAAAUGCC [U5A U9A], the self-cleavage was determined as 0.

For the variant UACGAAGGUGGUUUUCCCCUGAUAGUGCUAAGGGGCCCUGGAAGUUUGGACUGGGCAGAGCUCAACACAGCGUGGCAAAGUGGCUGUGGCUAGACUGCCUCUCUGGAUUCCUCGUCACUCAGCAGGGCAUCUCUGAGAGAAAUGCC [U5A G36C], the self-cleavage stood at 1.16. In the case of UACGAAGGUGGUUUUCCCCUGAUAGUGCUAAGGGGGCCUGGAAGUUUGGACUGGGCAGAGCUCAACACAGCGUGGCAAAGUGGCUGUGGCUAGACUGCCUCUCUGGAUUUCUCGUCACUCAGCAGGGCAUCUCUGAGAGAAAUGCC [U5A C110U], the self-cleavage worked out at 0.34. Turning to UACGAAGGUGGUUUUCCCCUGAUAGUGCUAAGGGGGCCUGGAAGUUUGGACUGGGCAGAGCUCAACACAGCGUGGCAAAGUGGCUGUGGCUAGACUGCCUCUCUGGAUUCCUCGUCACUCAGCAGGGCACCUCUGAGAGAAAUGCC [U5A U130C], the self-cleavage is 0.96. On to UACGAAGGUGGUUUUCCCCUGAUAGUGCUAAGGGGGCCUGGAAGUUUGGACUGGGCAGAGCUCAACACAGCGUGGCAAAGUGGCUGUGGCUAGACCGCCUCUCUGGAUUCCUCGUCACUCAGCAGGGCAUCUCUGAGAGAAAUGCC [U5A U96C], for which the self-cleavage came out at 0.45. Consider UACGAAGGUGGUUUUCCCCUGAUAGUGCUAAGGGGGCCUGGAAGUUUGGACAGGGCAGAGCUCAACACAGCGUGGCAAAGUGGCUGUGGCUAGACUGCCUCUCUGGAUUCCUCGUCACUCAGCAGGGCAUCUCUGAGAGAAAUGCC [U5A U52A], for which the self-cleavage came to 0.52. UACGAAGGUGGUUUUCCCCUGAUAGUGCUAAGGGGGCCUGGAAAUUUGGACUGGGCAGAGCUCAACACAGCGUGGCAAAGUGGCUGUGGCUAGACUGCCUCUCUGGAUUCCUCGUCACUCAGCAGGGCAUCUCUGAGAGAAAUGCC [U5A G44A]: the self-cleavage came out at 0.81. With UACGAAGGUGGUUUUCCCCUGAUAGUGCUAAGGGGGCCAGGAAGUUUGGACUGGGCAGAGCUCAACACAGCGUGGCAAAGUGGCUGUGGCUAGACUGCCUCUCUGGAUUCCUCGUCACUCAGCAGGGCAUCUCUGAGAGAAAUGCC [U5A U39A], the self-cleavage was found to be 0.8.

In the case of UACGAAGGUGGUUUUCCCCUGAUAGUGCUAAGGGGGCCUGGAAGUUUGGACUGGGCAGAGCUCAACACAGCGUGGCAAAGUGGCUGUGGCUAGACUGCCACUCUGGAUUCCUCGUCACUCAGCAGGGCAUCUCUGAGAGAAAUGCC [U5A U100A], the self-cleavage was determined as 0.51. Regarding UACGAAGGUGGUUUUCCCCUGAUAGUGCUAAGGGGGCCUGGAAGUUUGGACUGGGCAGAGCUCAACACAGCGUGGCAAAGUGGCUGUGGCUAGACUGCCCCUCUGGAUUCCUCGUCACUCAGCAGGGCAUCUCUGAGAGAAAUGCC [U5A U100C], the self-cleavage came out at 0.82.

In the case of UACGAAGGUGGUUUUCCCCUGAUAGUGCUAAGGGGGCCUGGAAGUUUGGACUGGGCAGAGCUCAACACAGCGUGGCAAAGUGGCUGUGGCUAGACUGCCUCUCUGGAUUCCUCGUCACUCAGCAGGGCAUCUCUGAGAGAGAUGCC [U5A A141G], the self-cleavage was determined as 1.23. As to UACGAAGGUGGUUUUCCCCUGAUAGUGCUAAGGUGGCCUGGAAGUUUGGACUGGGCAGAGCUCAACACAGCGUGGCAAAGUGGCUGUGGCUAGACUGCCUCUCUGGAUUCCUCGUCACUCAGCAGGGCAUCUCUGAGAGAAAUGCC [U5A G34U], the self-cleavage turned out to be 0.88.

Take UACGAAGGUGGUUUUCCCCUGAUAGUGCUAAGGGGGCCUGGAAGUUUGGACUGGGCAGAGCUCAACACAGCGUGGCAAAGUGGCUGUGGCUAGACUGCCUCUCUGGAUUCCUCGCCACUCAGCAGGGCAUCUCUGAGAGAAAUGCC [U5A U115C]: the self-cleavage came out at 0.5. Consider UACGAAGGUGGUUUUCCCCUGAUAGUGCUAAGGGGGCCUGGAAGUUUGGACUGGGCAGAGCUCAACACAGCGUGGCAAAGUGGCUGUGGGUAGACUGCCUCUCUGGAUUCCUCGUCACUCAGCAGGGCAUCUCUGAGAGAAAUGCC [U5A C90G], for which the self-cleavage turned out to be 0.09. As for UACGAAGGUGGUUUUCCCCUGAUAGUGCUAAGGGGGCCUAGAAGUUUGGACUGGGCAGAGCUCAACACAGCGUGGCAAAGUGGCUGUGGCUAGACUGCCUCUCUGGAUUCCUCGUCACUCAGCAGGGCAUCUCUGAGAGAAAUGCC [U5A G40A], the self-cleavage turned out to be 1.01. Take UACGAAGGUGGUUUCCCCCUGAUAGUGCUAAGGGGGCCUGGAAGUUUGGACUGGGCAGAGCUCAACACAGCGUGGCAAAGUGGCUGUGGCUAGACUGCCUCUCUGGAUUCCUCGUCACUCAGCAGGGCAUCUCUGAGAGAAAUGCC [U5A U15C]: the self-cleavage stood at 0.94. For UACGAAGGUGGUUUUCCCCUGAUAGUGCUAAGGGGGCCUGGAAGUUUGGACUGGGCAGAGCUCAACACAGCGUGGCAAAGUGGCUGUGGCUAGACUGCCUCUCUGGAUUCCUCGUCACUCAGCAGGGCAUCUCUGAGAGGAAUGCC [U5A A140G], the self-cleavage came out at 0.88. For UACGAAGGUGGUUUUCCCCUGAUAGUGCUAAGGGGGCCUGGAAGUCUGGACUGGGCAGAGCUCAACACAGCGUGGCAAAGUGGCUGUGGCUAGACUGCCUCUCUGGAUUCCUCGUCACUCAGCAGGGCAUCUCUGAGAGAAAUGCC [U5A U46C], the self-cleavage was 1.03.

Turning to UACGAAGGUGGUUUUCCCCUGAUAGUGCUAAGGGGGCCUGGAAGUAUGGACUGGGCAGAGCUCAACACAGCGUGGCAAAGUGGCUGUGGCUAGACUGCCUCUCUGGAUUCCUCGUCACUCAGCAGGGCAUCUCUGAGAGAAAUGCC [U5A U46A], the self-cleavage was found to be 0.82. Regarding UACGAAGGUGGUCUUCCCCUGAUAGUGCUAAGGGGGCCUGGAAGUUUGGACUGGGCAGAGCUCAACACAGCGUGGCAAAGUGGCUGUGGCUAGACUGCCUCUCUGGAUUCCUCGUCACUCAGCAGGGCAUCUCUGAGAGAAAUGCC [U5A U13C], the self-cleavage stood at 0.99. To UACGAAGGUGGUUUUCCCCUGAUAGUGCUAAGGGGGCCUGGAAGUUUGGACUGGGCAGAGAUCAACACAGCGUGGCAAAGUGGCUGUGGCUAGACUGCCUCUCUGGAUUCCUCGUCACUCAGCAGGGCAUCUCUGAGAGAAAUGCC [U5A C61A] belongs 0.03. For the variant UACGAAGGUGGUUUUCCCCAGAUAGUGCUAAGGGGGCCUGGAAGUUUGGACUGGGCAGAGCUCAACACAGCGUGGCAAAGUGGCUGUGGCUAGACUGCCUCUCUGGAUUCCUCGUCACUCAGCAGGGCAUCUCUGAGAGAAAUGCC [U5A U20A], the self-cleavage came to 1.12. As to UACGAAGGUGGUUUUCCCCUGAUAGUGCUAAGGGGGCCUGGAAGUUUGGACUGGGCAGAGCUCAACACAGCGUGGCAAAGUGGCUGUGGCUAGACUGCCUCUCUGGAUUCCUCGUCACUCAGCUGGGCAUCUCUGAGAGAAAUGCC [U5A A124U], the self-cleavage was found to be 1.2.

For UACGAAGGUGGUUUUCCCCUGAUAGUGCUAAGGGGGCCUGGAAGUUUGGACUGGGCAGAGCUCAACACAGCGUGGCAAAGUGGCUGUGGCUAGACUGCCUCUCUGGAUUCCUCGUCACUCAGCAGGGCAUCCCUGAGAGAAAUGCC [U5A U132C], the self-cleavage turned out to be 1.25. Turning to UACGAAGGUGGUUUUCCCCUGAUAGUGCUAAAGGGGCCUGGAAGUUUGGACUGGGCAGAGCUCAACACAGCGUGGCAAAGUGGCUGUGGCUAGACUGCCUCUCUGGAUUCCUCGUCACUCAGCAGGGCAUCUCUGAGAGAAAUGCC [U5A G32A], the self-cleavage was 0.93. To UACGAAGGUGGUUUUCCCCUGAUAGUGCUAAGGGGGCCUGGAAGUUUGGACUGGGCAGAGCUCAACACAGCGUGGCAAAGUGGCCGUGGCUAGACUGCCUCUCUGGAUUCCUCGUCACUCAGCAGGGCAUCUCUGAGAGAAAUGCC [U5A U85C] belongs 0.2; to UACGAAGGUGGUUUUCCCCUGAUAGUGCUAAGGGGGCCUGGAAGUUUGGACUGGGCAGAGCUCAACACAGCGUGGCAAAGUGGCGGUGGCUAGACUGCCUCUCUGGAUUCCUCGUCACUCAGCAGGGCAUCUCUGAGAGAAAUGCC [U5A U85G], 0.16. The result for UACGCGGGUGGUUUUCCCCUGAUAGUGCUAAGGGGGCCUGGAAGUUUGGACUGGGCAGAGCUCAACACAGCGUGGCAAAGUGGCUGUGGCUAGACUGCCUCUCUGGAUUCCUCGUCACUCAGCAGGGCAUCUCUGAGAGAAAUGCC [U5C A6G] reads 0.65; that for UACGAAGGUGGUUUUCCCCUGAUAGAGCUAAGGGGGCCUGGAAGUUUGGACUGGGCAGAGCUCAACACAGCGUGGCAAAGUGGCUGUGGCUAGACUGCCUCUCUGGAUUCCUCGUCACUCAGCAGGGCAUCUCUGAGAGAAAUGCC [U5A U26A], 1.37; that for UACGAAGGUGGUUUUCCCCUGAUAGUGCUAAGGGGGCCUGGAAGUUUGGACUGGGCAGAGCUCAACACAGCGUGGCAAAGUGGCUGAGGCUAGACUGCCUCUCUGGAUUCCUCGUCACUCAGCAGGGCAUCUCUGAGAGAAAUGCC [U5A U87A], 0.15. In the case of UACGAAGGUGGUUAUCCCCUGAUAGUGCUAAGGGGGCCUGGAAGUUUGGACUGGGCAGAGCUCAACACAGCGUGGCAAAGUGGCUGUGGCUAGACUGCCUCUCUGGAUUCCUCGUCACUCAGCAGGGCAUCUCUGAGAGAAAUGCC [U5A U14A], the self-cleavage was 1.15. Take UACGAAGGUGGUUCUCCCCUGAUAGUGCUAAGGGGGCCUGGAAGUUUGGACUGGGCAGAGCUCAACACAGCGUGGCAAAGUGGCUGUGGCUAGACUGCCUCUCUGGAUUCCUCGUCACUCAGCAGGGCAUCUCUGAGAGAAAUGCC [U5A U14C]: the self-cleavage is 0.85. To UACGAAGGUGGUUUUCCCCUGAUAGUGCUAAGGGGGCCUGGAAGUUUGGACUGGGCAGAGCCCAACACAGCGUGGCAAAGUGGCUGUGGCUAGACUGCCUCUCUGGAUUCCUCGUCACUCAGCAGGGCAUCUCUGAGAGAAAUGCC [U5A U62C] belongs 0.05.
